Paper PMC10175749

Substrate: C=C(C)CCO[P@@](=O)(O)OP(=O)(O)O
Experiment: purified protein
Settings: IPP 0.5-50 µM
[1] = co-substrate GPP 60 µM, FPP formation

| Protein | Km [1] | Km (co-substrate DMAPP 60 µM, GPP formation) |
| --- | --- | --- |
| RcFPPS2 (Rosa chinensis) (protein) MSNLRAKFMEVYSVLKSELINDPAFEFTDVSRQWIERMLDYNVPGGKLNRGLSVVDSFKLLKEGRELTDEEVFQSCALGWCIEWLQAYFLVLDDIMDGSHTRRGQPCWFRQPKIGMIAANDGIILRNHIPRILKNHFRVMPYYVDLLDLFNEVEFQTAHGQMIDLITTHEGEKDLSKYSLEIHRRIVQYKTAYYSFYLPVACALVMAGKNVESHADVKNILIEMGTYFQVQDDYLDCFGDPEVIGKVGTDIQDFKCSWMVVKALELSNEEQKKLLHENYGKDDQECIAKVKELYNVLDLQGVFTEYESSSYDKLTKSIEAHPSKAVQAVLKSFLAKIYKRQK | 13.1 ± 3.4 µM |  |
| RcG/FPPS1 (Rosa chinensis; F88Y) (protein) MADLKSKFLNVYSVLKSELLEDPAFEFTDASRQWVERMLDYNVPGGKLNRGLSVIDSYQLLQQGRELTEDEIFQASALGWCIEWLQAYFLVLDDMMDGSHTRRGQPCWFRLPKVGLIAANDGVLLRNHIPRILKKHFRQKPYYVDLVDLFNEVEFQTASGQLIDLITTIDGEKDLSKYSLSIHRRIVQYKTAYYSFYLSVACALLMSGEELDKHIDVKNLLVDMGIYFQVQDDYLDCFGDPETIGKIGTDIEDFKCSWLVVKALELSNEEQKKILHENYGNPDPAKVAKVKALYKELDLQGVFAEYERQSYEKLISSIEAHPSKAVQEVLKSFLGKIYKRKK | 9.08 ± 0.74 µM |  |
| RcG/FPPS1 (Rosa chinensis; V123I) (protein) MADLKSKFLNVYSVLKSELLEDPAFEFTDASRQWVERMLDYNVPGGKLNRGLSVIDSYQLLQQGRELTEDEIFQASALGWCIEWLQAFFLVLDDMMDGSHTRRGQPCWFRLPKVGLIAANDGILLRNHIPRILKKHFRQKPYYVDLVDLFNEVEFQTASGQLIDLITTIDGEKDLSKYSLSIHRRIVQYKTAYYSFYLSVACALLMSGEELDKHIDVKNLLVDMGIYFQVQDDYLDCFGDPETIGKIGTDIEDFKCSWLVVKALELSNEEQKKILHENYGNPDPAKVAKVKALYKELDLQGVFAEYERQSYEKLISSIEAHPSKAVQEVLKSFLGKIYKRKK | 14.74 ± 1.94 µM |  |
| RcG/FPPS1 (Rosa chinensis) (protein) MADLKSKFLNVYSVLKSELLEDPAFEFTDASRQWVERMLDYNVPGGKLNRGLSVIDSYQLLQQGRELTEDEIFQASALGWCIEWLQAFFLVLDDMMDGSHTRRGQPCWFRLPKVGLIAANDGVLLRNHIPRILKKHFRQKPYYVDLVDLFNEVEFQTASGQLIDLITTIDGEKDLSKYSLSIHRRIVQYKTAYYSFYLSVACALLMSGEELDKHIDVKNLLVDMGIYFQVQDDYLDCFGDPETIGKIGTDIEDFKCSWLVVKALELSNEEQKKILHENYGNPDPAKVAKVKALYKELDLQGVFAEYERQSYEKLISSIEAHPSKAVQEVLKSFLGKIYKRKK |  | 0.44 ± 0.03 µM |
| RcG/FPPS1 (Rosa chinensis; F88Y/V123I) (protein) MADLKSKFLNVYSVLKSELLEDPAFEFTDASRQWVERMLDYNVPGGKLNRGLSVIDSYQLLQQGRELTEDEIFQASALGWCIEWLQAYFLVLDDMMDGSHTRRGQPCWFRLPKVGLIAANDGILLRNHIPRILKKHFRQKPYYVDLVDLFNEVEFQTASGQLIDLITTIDGEKDLSKYSLSIHRRIVQYKTAYYSFYLSVACALLMSGEELDKHIDVKNLLVDMGIYFQVQDDYLDCFGDPETIGKIGTDIEDFKCSWLVVKALELSNEEQKKILHENYGNPDPAKVAKVKALYKELDLQGVFAEYERQSYEKLISSIEAHPSKAVQEVLKSFLGKIYKRKK | 12.78 ± 3.07 µM |  |
